Data taken from PMC8113879, “Molecular properties of human guanylate cyclase–activating protein 2 (GCAP2) and its retinal dystrophy–associated variant G157R” (The Journal of Biological Chemistry, 2021).

B1: nonmyristoylated human guanylate cyclase-activating protein 2 (natural protein, UniProt Q9UMX6 1-200, looked up)
chain: MGQEFSWEEAEAAGEIDVAELQEWYKKFVMECPSGTLFMHEFKRFFKVTDDEEASQYVEGMFRAFDKNGDNTIDFLEYVAALNLVLRGTLEHKLKWTFKIYDKDGNGCIDRLELLNIVEGIYQLKKACRRELQTEQGQLLTPEEVVDRIFLLVDENGDGQLSLNEFVEGARRDKWVMKMLQMDMNPSSWLAQQRRKSAMF
notes: cDNA cloned into pET-11a(+) with NdeI and NheI; No tag is mentioned; also called nmGCAP2; nonmyristoylated GCAP2
B2: myristoylated human guanylate cyclase-activating protein 2 (natural protein, UniProt Q9UMX6 1-200, looked up)
chain: MGQEFSWEEAEAAGEIDVAELQEWYKKFVMECPSGTLFMHEFKRFFKVTDDEEASQYVEGMFRAFDKNGDNTIDFLEYVAALNLVLRGTLEHKLKWTFKIYDKDGNGCIDRLELLNIVEGIYQLKKACRRELQTEQGQLLTPEEVVDRIFLLVDENGDGQLSLNEFVEGARRDKWVMKMLQMDMNPSSWLAQQRRKSAMF
modifications: myristic acid covalently bound to the N-terminal Gly
notes: cDNA cloned into pET-11a(+) with NdeI and NheI; Myristoylation was confirmed by MALDI-TOF (difference of 212.2 Da to nmGCAP2); Surmised: the first methionine is removed so that Gly2 is the myristoylated N-terminus; also called mGCAP2; myristoylated GCAP2
B3: myristoylated human GCAP2 G157R variant (natural protein, UniProt Q9UMX6 1-200, looked up)
chain: MGQEFSWEEAEAAGEIDVAELQEWYKKFVMECPSGTLFMHEFKRFFKVTDDEEASQYVEGMFRAFDKNGDNTIDFLEYVAALNLVLRGTLEHKLKWTFKIYDKDGNGCIDRLELLNIVEGIYQLKKACRRELQTEQGQLLTPEEVVDRIFLLVDENRDGQLSLNEFVEGARRDKWVMKMLQMDMNPSSWLAQQRRKSAMF
modifications: myristic acid covalently bound to the N-terminal Gly
notes: The variant occurs in patients (Japanese families with retinitis pigmentosa); also called G157R GCAP2; IRD-associated G157R variant

Key:
[1] = molecular target: GCAP2 (Bos taurus) (UniProt P51177); test: sedimentation equilibrium; details: cited from earlier work
[2] = molecular target: the molecule itself; test: MALDI-TOF MS; 1.0 mg/ml protein in 20 mM Tris HCl pH 7.5, 150 mM KCl, 1 mM DTT, desalted by ZipTip C4, sinapinic acid matrix; dimer peaks beside the monomer peak
[3] = molecular target: the molecule itself; test: SEC; analytical SEC, Superose 12 10/300GL, 20 mM Tris HCl pH 7.5, 150 mM KCl, 1 mM DTT, 500 uM EGTA + 1 mM Mg2+ (no Ca2+), 25 C; ~40 uM protein or 5-80 uM for the titration; apparent KD from a hyperbolic fit of apparent mass against concentration; monomer to dimer
[4] = molecular target: the molecule itself; test: SEC; analytical SEC, Superose 12 10/300GL, 20 mM Tris HCl pH 7.5, 150 mM KCl, 1 mM DTT, 1 mM Mg2+ + 500 uM Ca2+, 25 C; ~40 uM protein or 5-80 uM for the titration; apparent KD from a hyperbolic fit of apparent mass against concentration; monomer to dimer

GCAP2 (Bos taurus), sequence (P51177 2-204): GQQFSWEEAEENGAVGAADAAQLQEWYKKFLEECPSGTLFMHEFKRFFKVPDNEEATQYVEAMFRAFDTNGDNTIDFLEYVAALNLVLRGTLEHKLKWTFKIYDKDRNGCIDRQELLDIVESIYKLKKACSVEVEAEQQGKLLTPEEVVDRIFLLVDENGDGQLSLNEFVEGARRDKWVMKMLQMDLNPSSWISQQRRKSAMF

| Molecule | Kd [1] | stoichiometry N [2] | Kd [3] | Kd [4] |
| --- | --- | --- | --- | --- |
| GCAP2 (from UniProt P51177) | 52 µM | – | – | – |
| B1 | – | 2 | – | – |
| B2 | – | 2 | < 1 µM | 55.4 µM |
| B3 | – | 2 | – | – |
